Test results reported in patent publication US20210332339, “NOVEL NUCLEASE DOMAIN AND USE THEREOF” (HIROSHIMA UNIVERSITY, published 2021).

Key:
ZFL1-ND1-DDD = ZFL1-ND1-DDD (Artificial); assay: cell_activity; SSA, ZFL1-6bp-ZFA36, paired with ND1-RRR; about 80% with FokI-RRR; alone almost inactive; conditions: R493D/N502D
Protocol: (§1) Genes to Cells 15: 875-885). To a 96-well multiwell plate (Iwaki) treated with polylysine coat, 25 μL of serum-free D-MEM culture solution was added, and 6 μL of plasmid solution was mixed. To this, 25.7 μL of a solution containing 0.7 μL of Lipofectamine LTX (Life Technologies) per 25 μL of serum-free D-MEM culture solution was added, and the mixture was allowed to stand at room temperature for 30 minutes. During this period, HEK293T cells were dissociated from a 100 mm tissue culture dish (Iwaki) by trypsin treatment, centrifuged at 1000 rpm for 3 minutes, the supernatant was removed, and the cells were suspended again in 5 mL of the culture solution. A 10 μL cell suspension was dispensed, and the number of cells was counted. […]
(§2) Furthermore, in order to functionally convert the amino acids of the novel nuclease domains corresponding to the amino acids (D483, R487, and N496) involved in the heterodimerization of FokI-ND to the DDD-type, each pSTL-hPGRN_ZFL1-ND was used as a template and a primer pair was used to perform PCR by PrimeSTAR Max. […] Note that the amount of each ZFN plasmid in 7.2 μL of the plasmid solution used in the SSA reporter assay was changed to 120 ng for the target half-site L and 120 ng for the target half-site R. In addition, nuclease activity was measured by the Cel-I assay in the same manner as described in Example 3.

ZFA36-ND1-RRR = ZFA36-ND1-RRR (Artificial); assay: cell_activity; SSA, ZFL1-6bp-ZFA36, paired with ND1-DDD; about 60% with FokI-DDD; alone almost inactive; conditions: D489R/N543R
Protocol: as §1, §2

ZFA36-ND1 = ZFA36-ND1 (Artificial (ND1 from Bacillus sp. …)); assay: cell_activity; Cel-I assay CHO-K1, stated for the sites overall; conditions: tags: TGAAARA linker; residues from the E. coli expression version (His/NLS); chain copies: 2 inferred

Chain of ZFL1-ND1-DDD (Artificial) (chain, as listed by the source): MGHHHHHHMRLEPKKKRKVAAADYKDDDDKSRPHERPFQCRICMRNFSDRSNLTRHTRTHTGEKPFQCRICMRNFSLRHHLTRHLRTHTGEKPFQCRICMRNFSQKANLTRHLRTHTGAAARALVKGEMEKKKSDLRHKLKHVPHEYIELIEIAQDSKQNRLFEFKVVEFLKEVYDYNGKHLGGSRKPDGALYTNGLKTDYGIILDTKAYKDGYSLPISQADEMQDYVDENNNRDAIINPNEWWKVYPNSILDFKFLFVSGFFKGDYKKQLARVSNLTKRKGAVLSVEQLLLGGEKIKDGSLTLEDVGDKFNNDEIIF
Chain of ZFA36-ND1-RRR (Artificial) (chain, as listed by the source): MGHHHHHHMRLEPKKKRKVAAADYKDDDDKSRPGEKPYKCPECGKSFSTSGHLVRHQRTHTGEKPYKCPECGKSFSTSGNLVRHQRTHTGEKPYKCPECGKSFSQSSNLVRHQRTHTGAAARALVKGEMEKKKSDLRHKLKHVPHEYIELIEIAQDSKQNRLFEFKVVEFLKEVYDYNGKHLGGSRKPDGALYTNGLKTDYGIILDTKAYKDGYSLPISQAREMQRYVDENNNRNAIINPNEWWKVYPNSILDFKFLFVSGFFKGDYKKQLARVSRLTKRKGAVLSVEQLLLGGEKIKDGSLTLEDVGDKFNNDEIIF

B1: ZFL1 half-site (dsDNA)
DNA 1: GAAGGTGAC
DNA 2: GTCACCTTC
ZFL1-ND1-DDD
  binding signal: ~1.6 fold

B2: ZFA36 half-site (dsDNA)
DNA 1: GAAGATGGT
DNA 2: ACCATCTTC
ZFA36-ND1-RRR
  binding signal: ~1.6 fold

B3: ZFA36-ZFA36 CHO-K1 3rd site (dsDNA)
DNA 1: ACCATCTTCCTTGATGAAGATGCC
DNA 2: GGCATCTTCATCAAGGAAGATGGT
ZFA36-ND1
  binding signal: ~1.5 fold of FokI-ND
